The experiment deals with Galectin-3-binding protein in conditioned media of HEK293T cells expressing rSulf-2 (human (endogenous in HEK293T)) (UniProt Q08380). The experiment in a line: affinity purification with mass spectrometry.
Chain of UniProt Q08380 (Q08380 19-585): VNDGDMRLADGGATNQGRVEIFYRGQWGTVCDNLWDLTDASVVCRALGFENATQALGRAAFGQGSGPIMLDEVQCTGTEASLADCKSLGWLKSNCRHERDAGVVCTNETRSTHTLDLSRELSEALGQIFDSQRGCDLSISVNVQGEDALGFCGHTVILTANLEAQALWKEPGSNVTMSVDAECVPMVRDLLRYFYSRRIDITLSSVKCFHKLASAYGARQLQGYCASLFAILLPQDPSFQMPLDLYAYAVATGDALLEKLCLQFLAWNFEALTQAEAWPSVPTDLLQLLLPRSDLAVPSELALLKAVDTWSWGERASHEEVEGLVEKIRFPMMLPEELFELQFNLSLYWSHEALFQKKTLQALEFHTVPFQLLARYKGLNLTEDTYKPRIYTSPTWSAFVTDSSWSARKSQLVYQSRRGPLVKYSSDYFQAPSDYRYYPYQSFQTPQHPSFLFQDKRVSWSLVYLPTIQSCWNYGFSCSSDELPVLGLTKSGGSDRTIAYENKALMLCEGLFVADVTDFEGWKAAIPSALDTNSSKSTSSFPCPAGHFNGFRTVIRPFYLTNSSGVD

“rSulf-2 (HEK293T lentiviral) treated with chondroitinase ABC (enzyme)”: the fold change of the Sulf-2/LG3BP peak-area ratio against the untreated control worked out at 3 fold.

For the origin of these results see publication PMC10769223.
